B1: Pistol ribozyme (parent)
chain: GGGUCGUUGUUCCAUAAUCGCGUGGAUAUGGCACGCAAGUUUCUACCGGGCACCGUAAAUGUCCGACUGGAGCCGUUCGGGCGGCUAUAAACAGACCUCAGGCCCGAAGCGUGGCGGCACCUGCCGCCGGUGGUAAAAAAGAUCGGAAGAGCACACGUCU

Variants of: B1
Test: aptazyme ON/OFF ratio, guanine; higher = stronger switching; co-transcriptional cleavage with and without guanine

Row | Variant | aptazyme ON/OFF ratio
1 | U7A U8A G9U U10A U11G C12U C13G | 1.15
2 | U7A U8A G9U U10A U11G C12U C13U | 1.27
3 | U7A U8A G9U U10A U11G C12U C13A | 1.25
4 | U7A U8A G9C U10C U11A C12G | 1.06
5 | U7A U8A G9C U10C U11A C12A | 1.06
6 | U7A U8A G9C U10C U11A C12U | 1.07
7 | U7A U8A G9U U10A C12G | 1.41
8 | U7A U8A G9U U10A C12A | 1.27
9 | U7A U8A G9U U10A C12U | 1.16
10 | U7A U8A G9C U10A C12A C13A | 1.11
11 | U7A U8A G9C U10A C12A C13G | 1.16
12 | U7A U8A G9C U10A C12A C13U | 1.18
13 | U7A U8A G9U U10A U11C C12A C13G | 1.08
14 | U7A U8A G9U U10A U11C C12A C13A | 1.11
15 | U7A U8A G9U U10A U11C C12A C13U | 1.14
16 | U7A U8A G9U U10A U11A | 1.44
17 | U7A U8A G9U U10A U11C | 1.08
18 | U7A U8A G9U U10A U11G | 1.38
19 | U7A U8A G9C U10C U11A C12A C13U | 1.06
20 | U7A U8A G9C U10C U11A C12A C13A | 1.02
21 | U7A U8A G9C U10C U11A C12A C13G | 1.03
22 | U7A U8A G9C U10G C12G C13A | 1.22
23 | U7A U8A G9C U10G C12G C13U | 1.22
24 | U7A U8A G9C U10G C12G C13G | 1.11

Row | Variant | aptazyme ON/OFF ratio
25 | U7A U8A G9C U10G U11A C13G | 1.09
26 | U7A U8A G9C U10G U11A C13U | 1.04
27 | U7A U8A G9C U10G U11A C13A | 1.04
28 | U7A U8A G9C U10C U11C C12G C13A | 1.02
29 | U7A U8A G9C U10C U11C C12G C13G | 1.04
30 | U7A U8A G9C U10C U11C C12G C13U | 1.03
31 | U7A U8A G9C U10C C12U C13A | 1.02
32 | U7A U8A G9C U10C C12U C13G | 1.1
33 | U7A U8A G9C U10C C12U C13U | 1.07
34 | U7A U8A G9U C13G | 1.05
35 | U7A U8A G9U C13A | 1.16
36 | U7A U8A G9U C13U | 1.21
37 | U7A U8A G9C U10A U11C C12U | 1.05
38 | U7A U8A G9C U10A U11C C12G | 1.16
39 | U7A U8A G9C U10A U11C C12A | 1.13
40 | U7A U8A G9C U10C C12U | 1.07
41 | U7A U8A G9C U10C C12G | 1.04
42 | U7A U8A G9C U10C C12A | 1.03
43 | U7A U8A G9C U10C U11C C13G | 1.07
44 | U7A U8A G9C U10C U11C C13U | 1.04
45 | U7A U8A G9C U10C U11C C13A | 1.03
46 | U7A U8A G9U U10A U11A C12G C13U | 1.04
47 | U7A U8A G9U U10A U11A C12G C13A | 1.15
48 | U7A U8A G9U U10A U11A C12G C13G | 1.14

Row | Variant | aptazyme ON/OFF ratio
49 | U7A U8A G9U U10C C12A C13U | 1.16
50 | U7A U8A G9U U10C C12A C13G | 1.15
51 | U7A U8A G9U U10C C12A C13A | 1.11
52 | U7A U8A G9C U10C U11G C12U C13G | 1.05
53 | U7A U8A G9C U10C U11G C12U C13A | 1.02
54 | U7A U8A G9C U10C U11G C12U C13U | 1.06
55 | U7A U8A G9U C12A | 1.19
56 | U7A U8A G9U C12U | 1.32
57 | U7A U8A G9U C12G | 1.45
58 | U7A U8A G9C U10G U11G C12G C13U | 1.21
59 | U7A U8A G9C U10G U11G C12G C13G | 1.13
60 | U7A U8A G9C U10G U11G C12G C13A | 1.2
61 | U7A U8A G9C U10G U11G C12A C13G | 1.17
62 | U7A U8A G9C U10G U11G C12A C13U | 1.41
63 | U7A U8A G9C U10G U11G C12A C13A | 1.4
64 | U7A U8A G9C U10A U11C C12U C13A | 1.13
65 | U7A U8A G9C U10A U11C C12U C13U | 1.11
66 | U7A U8A G9C U10A U11C C12U C13G | 1.19
67 | U7A U8A G9C U10C U11A C12G C13G | 1.06
68 | U7A U8A G9C U10C U11A C12G C13A | 1.05
69 | U7A U8A G9C U10C U11A C12G C13U | 1.1
70 | U7A U8A G9U U10A U11C C12U | 1.1
71 | U7A U8A G9U U10A U11C C12A | 1.22
72 | U7A U8A G9U U10A U11C C12G | 1.18

Row | Variant | aptazyme ON/OFF ratio
73 | U7A U8A G9C U10G U11G C13A | 1.28
74 | U7A U8A G9C U10G U11G C13U | 1.48
75 | U7A U8A G9C U10G U11G C13G | 1.18
76 | U7A U8A G9U U10A U11A C12A C13G | 1.2
77 | U7A U8A G9U U10A U11A C12A C13A | 1.35
78 | U7A U8A G9U U10A U11A C12A C13U | 1.18
79 | U7A U8A G9U U10A U11A C12U | 1.34
80 | U7A U8A G9U U10A U11A C12A | 1.22
81 | U7A U8A G9U U10A U11A C12G | 1.23
82 | U7A U8A G9C U10G U11A C12U | 1.03
83 | U7A U8A G9C U10G U11A C12A | 1.29
84 | U7A U8A G9C U10G U11A C12G | 1.32
85 | U7A U8A G9C U10C C12G C13G | 1.05
86 | U7A U8A G9C U10C C12G C13A | 0.99
87 | U7A U8A G9C U10C C12G C13U | 1.06
88 | U7A U8A G9C U10A C12G | 1.25
89 | U7A U8A G9C U10A C12U | 1.15
90 | U7A U8A G9C U10C U11A C13G | 1.19
91 | U7A U8A G9C U10C U11A C13U | 1.13
92 | U7A U8A G9C U10C U11A C13A | 1.14
93 | U7A U8A G9C U10G U11C C12G C13U | 1.22
94 | U7A U8A G9C U10G U11C C12G C13A | 1.36
95 | U7A U8A G9C U10G U11C C12G C13G | 1.39
96 | U7A U8A G9C U11C C12G C13G | 1.07

Row | Variant | aptazyme ON/OFF ratio
97 | U7A U8A G9C U11C C12G C13U | 1.07
98 | U7A U8A G9C U11C C12G C13A | 1.06
99 | U7A U8A G9C U10C C13G | 1
100 | U7A U8A G9C U10C C13A | 1.04
101 | U7A U8A G9C U10C C13U | 1.12
102 | U7A U8A G9U U10A U11C C12G C13U | 1.18
103 | U7A U8A G9U U10A U11C C12G C13G | 1.15
104 | U7A U8A G9U U10A U11C C12G C13A | 1.18
105 | U7A U8A G9C U11G | 1.47
106 | U7A U8A G9C U11A | 1.25
107 | U7A U8A G9C U11C | 1.05
108 | U7A U8A G9U U10A U11G C12G C13A | 1.23
109 | U7A U8A G9U U10A U11G C12G C13G | 1.23
110 | U7A U8A G9U U10A U11G C12G C13U | 1.36
111 | U7A U8A G9C U11G C13A | 1.22
112 | U7A U8A G9C U11G C13G | 1.1
113 | U7A U8A G9C U11G C13U | 1.31
114 | U7A U8A G9U | 2.12
115 | U7A U8A G9U U10A C12G C13G | 1.18
116 | U7A U8A G9U U10A C12G C13A | 1.2
117 | U7A U8A G9U U10A C12G C13U | 1.3
118 | U7A U8A G9C U10A U11G C12U | 1.22
119 | U7A U8A G9C U10A U11G C12G | 1.19
120 | U7A U8A G9C U10A U11G C12A | 1.05

Row | Variant | aptazyme ON/OFF ratio
121 | U7A U8A G9C U10A U11C C12G C13A | 1.18
122 | U7A U8A G9C U10A U11C C12G C13U | 1.27
123 | U7A U8A G9C U10A U11C C12G C13G | 1.14
124 | U7A U8A G9C U10A C13U | 1.18
125 | U7A U8A G9C U10A C13G | 1.07
126 | U7A U8A G9C U10A C13A | 1.21
127 | U7A U8A G9U C12U C13G | 1.16
128 | U7A U8A G9U C12U C13U | 1.22
129 | U7A U8A G9U C12U C13A | 1.34
130 | U7A U8A G9U U10A U11G C13A | 1.22
131 | U7A U8A G9U U10A U11G C13G | 1.13
132 | U7A U8A G9U U10A U11G C13U | 1.19
133 | U7A U8A G9C U11C C12A | 1.07
134 | U7A U8A G9C U11C C12G | 1.1
135 | U7A U8A G9C U11C C12U | 1.09
136 | U7A U8A G9C U11C C12A C13U | 1.05
137 | U7A U8A G9C U11C C12A C13G | 1.07
138 | U7A U8A G9C U11C C12A C13A | 1.08
139 | U7A U8A G9U U10C C13U | 1.2
140 | U7A U8A G9U U10C C13G | 1.03
141 | U7A U8A G9U U10C C13A | 1.08
142 | U7A U8A G9C U11G C12A C13A | 1.17
143 | U7A U8A G9C U11G C12A C13G | 1.22
144 | U7A U8A G9C U11G C12A C13U | 1.23

Row | Variant | aptazyme ON/OFF ratio
145 | U7A U8A G9C U10A U11A C12A C13G | 1.07
146 | U7A U8A G9C U10A U11A C12A C13A | 1.37
147 | U7A U8A G9C U10A U11A C12A C13U | 1.14
148 | U7A U8A G9U U10C C12G C13A | 1.31
149 | U7A U8A G9U U10C C12G C13U | 1.4
150 | U7A U8A G9U U10C C12G C13G | 1.35
151 | U7A U8A G9C U10A U11G C13A | 1.17
152 | U7A U8A G9C U10A U11G C13U | 1.24
153 | U7A U8A G9C U10A U11G C13G | 1.11
154 | U7A U8A G9U U10A C12A C13A | 1.34
155 | U7A U8A G9U U10A C12A C13U | 1.15
156 | U7A U8A G9U U10A C12A C13G | 1.24
157 | U7A U8A G9C U11G C12A | 1.1
158 | U7A U8A G9C U11G C12U | 1.71
159 | U7A U8A G9C U11G C12G | 1.4
160 | U7A U8A G9C U10G | 2.69
161 | U7A U8A G9C U10C | 1.8
162 | U7A U8A G9C U11A C12A C13U | 1.15
163 | U7A U8A G9C U11A C12A C13G | 1.18
164 | U7A U8A G9C U11A C12A C13A | 1.08
165 | U7A U8A G9C U10C U11A C12U C13G | 1.1
166 | U7A U8A G9C U10C U11A C12U C13A | 1.03
167 | U7A U8A G9C U10C U11A C12U C13U | 1.09
